The values that follow come from the domain aggregation screens of Martell et al. (2025).

This series can be described thus: soluble fraction after stress (log2 fold change); higher = more stays soluble; pooled small domains, quantitative proteomics. Particulars: stress: pH 4. In short, it runs like this:
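Pooled custom libraries of small protein domains were subjected to pH 4 and measured by high-throughput quantitative proteomics. The log2 fold change in soluble amount per domain is reported, higher values meaning more remained soluble. This is used as a measure of aggregation propensity.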

Where only a bound is given, the exact number is not on record here.

Consider “HMSRWHEFLNKSEDGMKELDEQNQKVLTLLILQRFYQTPFQAKEDEEFYREFFERLSSVNEILG”, for which the “soluble fraction (log2)” value is -0.283.
As for “HMSSAYLTVRGIDIDVIYKDIKNLHIAVYPPFGRVRVAAPSHLDDDQVRLAVIQRLTWIKRQRERLRST”, the figure is -0.336; as for “HMSSDEAEYKLLLGQEGVAKSPLRPSGVVDFSGRRLDVQTLGDFIESGETVVVKQVNGHRVLVERK”, 0.0409; as for “HMSSDEEQLATLTRLLQKQEQIIQTLGPRNPMVSLQQYANTITKVIEMAGFKDTSQFINSQIP”, -0.0429.
With “HMSSDLESVIGTHSQEANFALRSWGWIQPDETWKNLRPDQVSQILERANEFMAKAIESFANAQSE”, the “soluble fraction (log2)” value was -0.984.
“HMSSDLLGVRVRRARARAGLTRRRLSLLSGVSERFLAQLESGQGNISIVLIRRVAAALGAELVELIGS”: the “soluble fraction (log2)” value is -0.0528.
As for “HMSSEDTQSRDRARKELSNEMSRIMKRYGLDYQPRDNADDIMNRLKAAGADENTLAYVQEKLK”, the figure is 0.0559; as for “HMSSEITYDKFIEMVDKDQVKEVTLQSGVLTVVPKIQKSYYQNASYKVNQMEDVDALTKRLEGTGIVFHY”, 0.129; as for “HMSSEITYDKFIEMVEEGNVKEVTLQSDTLTIKPKHQDSAFSEKEYYTRQMESADQLTERLEGTGIEFHS”, -0.642.
With “HMSSEQRSVLFPNLAETDKVAVIEALMAAGVNARVDSASGRVTVPSGDYYNSRAILAAQGLPTS” the figure was -0.175.
As for “HMSSETTVPAVVGIKEDKARQLASEQGLRLRVKSREESADVEEGIIISQDPNSNTKVKKGDEIEVVVS”, the figure is 0.32; as for “HMSSFSESFHKALNNLDDKHKSVFSLRHFEGFSMKEIAETLNINEGTVKSRLFYATKTLAGALKEF”, -1.29; as for “HMSSGKTGTITLQPKQTVYGITKQYKISEADLRKLNPQLDSNLKIGDKITLPLDNIQRYSDSSSNVAQT”, 0.22.
Regarding “HMSSGLLTVQEQRILEHLANGERNGDIAGRLHISEGTVKWHLHNMYRKLDAATRTQAVARARALRL”, the “soluble fraction (log2)” value was -0.428.
Take “HMSSIGERISDVRKARGYTQDQLAERIHVSRQTISHWENERALPDFESIKQLSQVLGYDFSS”: the “soluble fraction (log2)” value came out at 0.0836.
As for “HMSSIHQDAKQQLHEYIRTYIQPLMRAGKQVTVWDIIGHVTIRKPKLVQKIGTQQLINMVQDLLE”, the figure is -0.302; as for “HMSSKSDQLYLQLRRRISAMKDGEPFPTVRQLMTEYQVSQSTVTPAINQLKEKGLIEAYVGRGSFVSKK”, 0.161.
As for “HMSSKTKVEDLGLSTRTLNALIGGSIKTAGGLTRKSESDLLSLDGLGEKGITEIKEALENIGLSLK”, the figure is 0.0218; as for “HMSSLKKISIDELSPGMYVHSIVEQKGSVKIKSQGKVLKQAVVDALRKRGVKTLLIDLSKQFNPETGEP”, 0.346.
As for “HMSSLTPRETEVLSRMAQGDANTSIAERLVITEKAVQKHINAIFAKLGLAEEPTSARRVLAVLAFLR”, the figure is -0.407; as for “HMSSLTQREYEIAELVADGLSNKAIAAELSISHTTAARHVANIMNKLGFNSRSQIAAWVADRAQG”, -0.46.
As for “HMSSNLSLHKEGNKIVILGLEGKSVIEVYDLMGRLLSSQTNYNPKQEITLLQPVIIRVTDTQQTKSFKV”, the “soluble fraction (log2)” value is -0.132.
With “HMSSNLTVFTRNNAIIVNSDVVRKLNVFAVDGRLVRSVDLSVGENVINNISRGMYLIDKQKVVV” the figure was no less than 0.43; with “HMSSPDMSLLYSELDVKDSGQIVTILEQRNIPYEVRNNGSQIYIPSNNVQRIRLSLAQEGLPSG”, 0.152; with “HMSSPTAKATGSSVNIRKSASTGAAVLKRVEKGTVLEAVSISDGWVKVKYSGVTGYVSADYVKVSGL”, 0.154.
As for “HMSSQGQNTKTGTVTASALYVRSGAGTNYSQIGYLLKNTKVEIVGQTGSWYKIKFGSGTGYVSSKYIK”, the figure is 0.0256.
As for “HMSSQLETTFATLIGKRVSIRLHDPEGGFRDILGHLESPYSLRNRHGNLIEFAHDQIFLWREVI”, the figure is -1.18; as for “HMSSRNLIIFYDSPQAENALLATAERYGAILLHHYRNLHGIAVAIPADKDMAQAVTYFSRQPGVRQV”, 0.103.
On to “HMSSSKVAISQFEELVDQGQVREVVIEGSTATGTTAAGRRFAAEIPPGGMELFLSKLDDAGTTYEYSPP”, for which the “soluble fraction (log2)” value was found to be 0.127.
As to “HMSSSYTEMQLDKLKKLLEKETLLSSEKSELKSLIHDFDKIPEVVSPLIVGEYLRLKNKYIAVINSLE”, the “soluble fraction (log2)” value was -0.322.
With “HMSSSYTEMQLERFKELLNKETLLSSEKNELKNLISDFDKISEIVSPLVVGAYLQLKNEHIETINSLG” the figure was -0.846; with “HMSSTAIQAMIRRLIDGEDPRKPLSDARLAETLKASGVPVARRTVAKYRESMSIPSSQDRLRI”, 0.0607.
“HMSSTSTKTQNIVHIVKSGETLSAIASKYGVSVDNIKKWNNLSSDKLSIGQKLKINPTTQTSS”: the “soluble fraction (log2)” value is -0.186.
With “HMSSVEEILQTLGGRIRTQRLAQGISQQVLADRAGLSLGAVRQLEGSGQSGLDTLVRVLFVLGIVDEL” the figure was -1.57.
As for “HMSSVHTMEVKSTTQIKVLDENKNLSSYYSMKNPVSFNYRLFFLNQDELKKLQEDLKTNNDIQSIDIKYA”, the figure is -0.944; as for “HMSTALTPLTTREREVLALMAEGLTNSGIAARLVLTDRTVETHVSRILHKLGLGETTTNEHRRVLAVLRYL”, -0.716.
As for “HMSTASPEELRQTPERRRLIEYLREHGGHGRTSEIAAALGIDDSTASRLLRRLADNGLIVRTQYGEYTLLQ”, the figure is -0.0496.
For the sequence “HMSTEAVVMSSSVSVKSSPDKASTDLFVLHEGTKVRTVSELGDWREIVIADGKKGWVEARTIET”, the “soluble fraction (log2)” value was determined as 0.151.
As for “HMSTEPLALVGKTGIAATVLRPSGRIEVDDKYYDAVSLGAFIEKGEMVNIVKYENLQLYVAKL”, the figure is -0.0114.
With “HMSTFAQNLRALMEKRGVSQNELARSAGLTQSAINKILTGKTKQPGIDTTEAIARVLNVSVAQLIYT” the figure was 0.22.
With “HMSTFTPYLVKVTTSVLNIRKGAGTNYGTNGSIRDMGTYTIVAEADGQGASKWGKLKSGAGWISLDYTKK” the figure was 0.184.
“HMSTILERLIMLQEQSGMNQKQLQKELGLSNSAFSDWKKGKGRPSVEALVRFSEFFGVSMDWLAFG”: the “soluble fraction (log2)” value is -0.845.
With “HMSTKRQKELLEYVDRFITEHGYGPSYREIMNAIGYKSVSTVAIHIDGLIAKGYLRKRDNSARSLEVV” the figure was 0.249; with “HMSTKYSSNIISLVKGLMEEDQYKDLMGPPLKKEIIKKVESITDTFPYKFDKDDKEFIVKKVLISLRK”, 0.148; with “HMSTLKSALDEIPGIGAARKRALLNHFGSTRVISSVGVKDLEQVEGVSKKIALLIYGYFHDK”, no less than 0.43.
As for “HMSTLSIHIPDKFAGQRLDQALAELYSQFSRSRLQQWLNDGELLVDGKSVKANKKVLGGEFIQILK”, the figure is -0.00612.
With “HMSTPENLGGRNTAKARISWLENGVKQELESDFPAAEVVKLSSRFGGEVPELTVIRPSLEDIYLKMIG”, the “soluble fraction (log2)” value was -0.269.
Regarding “HMSTPLVATLRKRIIDGHYPPGERLAEIPVAEAFGVSRTPVRLAFRTLEQEGLLEKAGKRGYAVRA”, the “soluble fraction (log2)” value worked out at 0.0231.
With “HMSTQVPDVKERSQEEARSILESAGFKVTPAVKTEDSADIAKDMVTKTDPAAGQSVPKGTTITIYVSS” the figure was 0.298.
With “HMSTRLIGEIGVVTKDLGAGLKENGSIQIGREEWPAETKDMEHIPMGTRVKVIHIEGTRLVVEA” the figure was -0.266; with “HMSTSRAEIIAFLKSNPSSEYKHELETKLDEMDWAEAVKGNSEESFLAYKQRQPNGTHNGEADEKLKVLLV”, -0.171.
With “HMSTVISPLPGNIIKVLVPEGKSVKRGDTILTIESMKMENSIKAAYDGVVKKIYVQQAQIVMQGDPLFDL” the figure was -1.05.
Regarding “HMSVALSENIKTRRKALKMSQEYVAEQLDISRQAVAKWEAGKSEPTTENLVKLAALFEMSVSELVE”, the “soluble fraction (log2)” value worked out at 0.35.
With “HMSVDDVALRLEFGPSDAEALAFVHRHGAILSETTDRDTGVVSVHVRLSEADAGRFNQRYGV” the figure was -0.233; with “HMSVDDYLKFSGSGTYWNTQDRGKTYLVNGQQRPLRDKEYLPDVMHRHVIDFITKHRDRPFYIYYSM”, -0.0438.
As for “HMSVDVEGNQRIPTEQVLSELRDVGVSFGKRVSGLNADTIRNQMIINNDEIAWLGVNVRGSRVYVEITERI”, the figure is -0.0219; as for “HMSVERIEPPLPLIDTLLALRDALERPLSREENAFLSRRFAGGATRAQIDALAAQFRGAAAAESKV”, -0.324; as for “HMSVETSDLLPLIEQVLSLNPDKVKEYQNGKKGLLGFFMGQIKQTAGVAIDVGTLKPLLEDALHKDL”, -1.06.
With “HMSVEYRKTLSDGNEYQIVKEKNGYVIKKSLNEGLDYLEPMKNRKYYSSYSQAFKRLNLIAKEVNINEGYD” the figure was 0.0946; with “HMSVFGMEIGKTTEAEAGRMYRLNKEQLNPYSGGYQYSVNPKAIDFSGLEQVTLIFDEKKVLVYVQAV”, -0.179.
For the sequence “HMSVIETLLSDREREVLTHLVNGYDAKRIAEITGISTLTVRKHIANIYTKLHVNSKAQVISMAHKNKWF”, the “soluble fraction (log2)” value is -0.773.
With “HMSVIKERLTEFLTYKGIGQIKFAEAAGLSRGFVNVLGDGISSKSLNKISQAFPELNTLWLTTGEGEML” the figure was -0.061.
With “HMSVKTIRKTEFAKRLYSLMLEKNWNQSDLARASGMGRDSVSQYIRANNTPSPQNLKKLAEALGVEPVELY” the figure was 0.0509; with “HMSVKYLQIYHAIREKILSNEYAINQQLPDEITLTKEFNSSRMTVKKALDLLVSEGLIFRKRGQGTFVLSR”, no less than 0.43; with “HMSVLDEVRKLSFHQRNAVFLFYFEGYSMKEIAQIFHVKEGTVSSWLTRARKQLRKQMEEEVLYDESLP”, -0.0883.
Regarding “HMSVLLDDLSPREREILQLVVEGHSSTKIAGMLGLASATVDTYRSRLMAKLHIDNLPDLVRFAIRHGLIS”, the “soluble fraction (log2)” value was -0.122.
As for “HMSVLLKEEGSLQLARHGAAYFIIYSAQEHPNQRRHLKISEEESNRIMEGTPIEEIFLAYSG”, the figure is -0.972; as for “HMSVLQGLIESFKAGDRNLYEVAERLNVTEPFLAEALKDYRARFPKGVQVDNFWISFRPYLTIAEV”, -0.886; as for “HMSVNEKVRLFRELNQWSQEEMAERMNMSVAGYAKIERGETNISLHKLKQIASVLQIDLLDLVS”, -0.867.
